Results on 1 substance are retold here after publication PMC3823275.

The target of the assay is Tat13-Strep-Tactin (HIV-1 | Streptomyces avidinii). The assay can be described thus: SDS-PAGE of tetramers after heating.

As usually defined, the stoichiometry N is the number of molecules, sites or subunits per partner or assembly. On to Tat13-Strep-Tactin (designed binder), for which the stoichiometry N amounted to 4.
